Biological target: wipf1_human WIPF1 (UniProt O43516)
Sequence (O43516 whole entry): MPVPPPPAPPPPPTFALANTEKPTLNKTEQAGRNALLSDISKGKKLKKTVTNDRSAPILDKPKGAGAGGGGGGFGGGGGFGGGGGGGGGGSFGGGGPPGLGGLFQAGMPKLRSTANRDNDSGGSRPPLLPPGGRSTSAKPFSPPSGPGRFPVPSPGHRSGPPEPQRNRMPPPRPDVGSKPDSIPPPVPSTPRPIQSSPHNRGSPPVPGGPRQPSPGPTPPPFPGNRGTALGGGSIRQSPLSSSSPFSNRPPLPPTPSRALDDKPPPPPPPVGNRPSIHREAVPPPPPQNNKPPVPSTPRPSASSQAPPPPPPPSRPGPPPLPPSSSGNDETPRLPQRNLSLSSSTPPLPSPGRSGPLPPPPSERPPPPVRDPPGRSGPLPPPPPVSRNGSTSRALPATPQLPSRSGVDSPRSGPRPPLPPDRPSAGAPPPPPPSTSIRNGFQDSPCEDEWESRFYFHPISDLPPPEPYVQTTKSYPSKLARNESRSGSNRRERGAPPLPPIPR

Sequence of Src substrate cortactin (Mus musculus), Q60598 W526K (Q60598 whole entry W526K): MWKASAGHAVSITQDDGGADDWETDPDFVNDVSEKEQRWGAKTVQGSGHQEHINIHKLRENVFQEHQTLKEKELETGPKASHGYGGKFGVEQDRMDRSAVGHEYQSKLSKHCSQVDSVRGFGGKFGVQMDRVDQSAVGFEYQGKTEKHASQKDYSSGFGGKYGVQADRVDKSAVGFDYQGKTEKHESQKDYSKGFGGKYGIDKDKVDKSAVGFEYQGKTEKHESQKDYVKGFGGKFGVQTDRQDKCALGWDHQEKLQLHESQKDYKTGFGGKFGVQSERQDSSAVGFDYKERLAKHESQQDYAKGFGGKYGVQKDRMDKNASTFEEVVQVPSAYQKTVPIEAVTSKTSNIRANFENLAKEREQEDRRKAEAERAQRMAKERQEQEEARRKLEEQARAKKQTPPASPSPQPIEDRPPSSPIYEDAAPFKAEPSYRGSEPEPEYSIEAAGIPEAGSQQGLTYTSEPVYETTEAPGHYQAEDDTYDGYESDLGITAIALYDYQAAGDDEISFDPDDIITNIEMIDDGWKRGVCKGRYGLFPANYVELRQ

Src substrate cortactin (Mus musculus), Q60598 W526K
effect of a mutation on the interaction: disrupting interaction

Source: IntAct's records for PubMed 12620186
